Results taken from patent publication US20230167162A1 (TAMPERE UNIVERSITY FOUNDATION SR, published 2023).
Ends that are not written are not given here.

Legend:
[1] = biological target: T1, His-tagged neuropilin-1 b1b2 domain (NRP-1 WT) (UniProt O14786 273-586, limits assumed, FAM (5-(and-6)-carboxyfluorescein) label, amine-reactive dye); assay: ELISA: immobilised peptide (10 µg/well), FAM-labelled NRP-1, fluorescence intensity
T1 construct: domain: b1b2 domain; also called WT NRP-1; wild type NRP-1; not shown: His-tag
T1 sequence (looked up): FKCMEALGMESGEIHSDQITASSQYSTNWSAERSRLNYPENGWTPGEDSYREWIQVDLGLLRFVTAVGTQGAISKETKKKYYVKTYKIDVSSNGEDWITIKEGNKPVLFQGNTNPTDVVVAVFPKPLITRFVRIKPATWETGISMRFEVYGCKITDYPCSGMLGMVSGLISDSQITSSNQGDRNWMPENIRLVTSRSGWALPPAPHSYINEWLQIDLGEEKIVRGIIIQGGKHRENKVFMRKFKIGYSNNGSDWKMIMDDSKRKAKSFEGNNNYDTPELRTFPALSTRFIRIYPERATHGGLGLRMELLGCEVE
Description: (§1) In vitro binding of DCN-tCRK and peptides to NRP-1 was analyzed using ELISA analysis. 96-well, black FLUOTRAC™ 600, high binding plates (Greiner Bio-One, Kremsmünster, Austria) were coated with […] of 100 μg/ml DCN-tCRK in PBS at 4° C. overnight. 10 μg/well RPARPAR (SEQ ID NO: 25) and […] (SEQ ID NO: 26) peptides were coated in parallel as a positive and negative control, respectively. BSA was used as an immobilization control. The plates were washed 3 times with phosphate buffered saline (PBS) and blocked for 1 h at 37° C. with 300 μl of blocking solution (1×PBS, 1% BSA, 0.1% Tween-20). His-tagged neuropilin-1 b1b2 domain (NRP-1 WT) and triple mutant NS346A-E348A-T349A neuropilin-1 b1b2 domain (NRP-1 mutant) were expressed and purified at the Protein Production and Analysis Facility at the Sanford Burnham Prebys Medical Discovery Institute (La Jolla, Calif.) as described previously (Teesalu et al., 2009, PNAS 106:16157-16162). The recombinant proteins NRP1 WT, NRP1 mutant, and DCN-tCRK were FAM (5-(and-6)-Carboxyfluorescein, #90024, Biotium Inc, CA, USA) labeled by mixing 1:10 ratio of amine-reactive FAM dye (diluted in DMSO final concentration 0.2%) and protein. […] After adding 100 μl PBS in each well, the plate was immediately read with top read mode using a fluorescence reader (Flex Station II, Molecular Devices; peak excitation=485 nm, peak emission=530 nm, cut off=515).

[2] = biological target: T2, 6xHistag-DCN-tCRK fusion protein (human, UniProt P07585 31-359, glycosaminoglycan chain (mostly chondroitin sulfate) attached to the DCN core, residue not stated; FAM-labelled in the cell assay only); assay: ELISA: immobilised DCN-tCRK (100 µg/ml coating), FAM-labelled NRP-1 mutant, fluorescence intensity, compared with BSA control
T2 construct: Produced in HEK293F cells; Immobilised unlabelled on the plate in the ELISA; also called tCRK-DCN; FAM-DCN-tCRK
Description: as §1

T2 sequence (P07585 other isoform, or with tags, fused parts or gaps): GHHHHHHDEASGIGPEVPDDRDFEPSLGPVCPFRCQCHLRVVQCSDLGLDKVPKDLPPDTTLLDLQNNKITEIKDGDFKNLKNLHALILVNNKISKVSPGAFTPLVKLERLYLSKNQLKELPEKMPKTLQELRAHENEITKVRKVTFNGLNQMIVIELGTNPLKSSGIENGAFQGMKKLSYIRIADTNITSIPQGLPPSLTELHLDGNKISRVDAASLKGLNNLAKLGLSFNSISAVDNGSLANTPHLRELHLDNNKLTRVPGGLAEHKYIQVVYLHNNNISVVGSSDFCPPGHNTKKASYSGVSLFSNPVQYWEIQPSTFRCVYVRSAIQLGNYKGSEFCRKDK

## RPARPARA (not fully specified, also called negative peptide) [RPARPARA peptide]
[1]
  binding result: no binding (tested: 20 µg/well FAM-labelled NRP1 WT)

B1: triple mutant NS346A-E348A-T349A neuropilin-1 b1b2 domain (NRP-1 mutant) (receptor, UniProt O14786 273-586, looked up)
chain: FKCMEALGMESGEIHSDQITASSQYSTNWSAERSRLNYPENGWTPGEDSYREWIQVDLGLLRFVTAVGTQGAIAKAAKKKYYVKTYKIDVSSNGEDWITIKEGNKPVLFQGNTNPTDVVVAVFPKPLITRFVRIKPATWETGISMRFEVYGCKITDYPCSGMLGMVSGLISDSQITSSNQGDRNWMPENIRLVTSRSGWALPPAPHSYINEWLQIDLGEEKIVRGIIIQGGKHRENKVFMRKFKIGYSNNGSDWKMIMDDSKRKAKSFEGNNNYDTPELRTFPALSTRFIRIYPERATHGGLGLRMELLGCEVE
modifications: FAM (5-(and-6)-carboxyfluorescein) label, amine-reactive dye
notes: domain: b1b2 domain; Printed as 'NS346A-E348A-T349A'; also called mutant NRP-1; not shown: His-tag
[2]
  binding result: no binding (tested: 20 µg/well FAM-labelled NRP1 mutant)
